Among the data in patent US20250346685A1 (published 2025) are EC50 values, retold here.

In assay [1] the target is T1, human CD3 on T cells (Jurkat cells; human peripheral blood CD4+ and CD8+ T-cells) (human, UniProt P07766 23-207).
T1 construct: whole, on cells; also called CD4T; CD4 + T
Description: flow cytometry on Jurkat cells. The protocol:
The cells were adjusted to 5×10^5 cells/mL with 4% calf serum, 100 μL/well was added to 96-well U-plate, 300 g was centrifuged to removed the supernatant, 100 μL/well of gradient diluted antibody (initial concentration: 1800 nM, 3-fold dilution, 10 gradients) was added and incubated at 4° C. for 60 min. 50 μL/well Alexa Fluro647-labeled goat anti-human IgG Fc (1:300 dilution) was added to the secondary antibody and incubated on ice for 20 min. 50 μL/well PI was added after washing once, incubated for 5 min, and detected with flow cytometer (BD C6).
Background: Flow cytometry measures light scatter and fluorescence of single cells or particles in a stream.

Assay [2] deals with T1, human CD3 on T cells (Jurkat cells; …). Kind of assay: flow cytometry on peripheral blood CD8+ T-cells. The protocol: (§1) Fresh human or cynomolgus monkey peripheral blood was taken and PBMC was isolated by Ficoll. Paque Plus (GE, 17-1440-03). PBMC was adjusted to 5×10⁵ cells/mL with 4% calf serum (Hyclone, SH30626.06), 100 μL/well was added to a 96-well U-plate, the supernatant was centrifuged off and 100 μL of gradient diluted antibody (with starting concentration of 1800 nM, 3-fold dilution, 10 gradients) was added to each well and incubated for 60 min at 4° C. 50 μL/well Alexa Fluro647 labeled goat anti-human IgG Fc (1:300 dilution) was added to secondary antibody, with ice bath for 20 min. 50 μL/well PI was added after washing once and incubated for 5 min, and flow cytometer (BD Celesta) is used to make detection.

The target in assay [3] is T2, human GPC3 on cells (CHO-human GPC3 stably transfected cells; HepG2 tumor cells) (human, UniProt P51654 25-554).
T2 construct: whole, on cells; also called Human GPC3-CHO
Kind of assay: flow cytometry on CHO-human GPC3 stably transfected cells. The procedure:
(§2) CHO-human GPC3, CHO-Cynomolgus monkey GPC3 stably transfected cells or human hepatocellular carcinoma HepG2 tumor cells in logarithmic growth phase were taken. After blocking, the cells were adjusted to 5×10⁵ cells/ml, and 100 μl/well cell suspension was added to 96-well U-shaped plate and centrifuged at 300 g for 5 min. The supernatant was discarded, 100 μL of gradient diluted antibody (with a starting concentration of 1800 nM, 3-fold dilution, 10 gradients) was added to each well, and incubated at 4° C. for 60 min. 50 μL/well Alexa Fluro647 labeled goat anti-human IgG Fc (1:300 dilution) were added to the secondary antibody, incubated on ice for 20 min, added with 50 μL/well PI solution (1:300) after washing once, incubated for 5 min, and flow cytometer was used to make detection.

In assay [4] the target is T3, cynomolgus monkey GPC3 on CHO stably transfected cells (cynomolgus monkey, UniProt A0A2K5VK50 24-553).
T3 construct: whole, on cells; also called Cynomolgus monkey GPC3-CHO; CHO-Cynomolgus monkey GPC3
Description: flow cytometry on CHO-cynomolgus monkey GPC3 stably transfected cells. The procedure:
as §2

The target of assay [5] is T1, human CD3 on T cells (Jurkat cells; …). Kind of assay: flow cytometry on peripheral blood CD4+ T-cells. The procedure:
as §1

For assay [6], the target named is T2, human GPC3 on cells (CHO-human GPC3 …). Description: flow cytometry on HepG2 cells. The protocol: as §2

As a reminder, the EC50 is the concentration giving half of the maximal effect.

B1: GPC3 × CD3 κλ002 (bispecific antibody, human IgG4 S228P, kappa, lambda)
light 1: DVVMTQSPLSLPVTPGEPASISCRSSQSIVHSNGNTYLEWYLKKPGQSPQLLIYKVSNRFSGVPDRFSGSGSGTDFTLKISRVEAEDVGVYFCLQVTHVPLTFGQGTKLEIKRTVAAPSVFIFPPSDEQLKSGTASVVCLLNNFYPREAKVQWKVDNALQSGNSQESVTEQDSKDSTYSLSSTLTLSKADYEKHKVYACEVTHQGLSSPVTKSFNRGEC
heavy 1: QVQLVQSGAEVKKPGSSVKVSCKASGYTFADYEIHWVREAPGQGLEWMGAIHPGSGGTAYAQKFQGRVTLTADESSTTAYMELSSLRSEDTAVYYCTRYYSFAYWGQGTLVTVSSASTKGPSVFPLAPCSRSTSESTAALGCLVKDYFPEPVTVSWNSGALTSGVHTFPAVLQSSGLYSLSSVVTVPSSSLGTKTYTCNVDHKPSNTKVDKRVESKYGPPCPPCPAPEFEGGPSVFLFPPKPKDTLMISRTPEVTCVVVDVSQEDPEVQFNWYVDGVEVHNAKTKPREEQFNSTYRVVSVLTVLHQDWLNGKEYKCKVSNKGLASSIEKTISKAKGQPREPQVCTLPPSQEEMTKNQVSLSCAVKGFYPSDIAVEWESNGQPENNYKTTPPVLDSDGSFFLVSKLTVDKSRWQEGNVFSCSVMHEALHNHYTQKSLSLSLGK
light 2: QAVVTQEPSLTVSPGGTVTLTCRSSTGAVTTSNYANWVQEKPGQAPRGLIGGTNKRAPWTPARFSGSLLGGKAALTITGAQAEDEAEYYCVLWYSNLWVFGGGTKLTVLGQPKAAPSVTLFPPSSEELQANKATLVCLISDFYPGAVTVAWKADSSPVKAGVETTTPSKQSNNKYAASSYLSLTPEQWKSHRSYSCQVTHEGSTVEKTVAPTECS
heavy 2: EVQLVESGGGLVQPGGSLRLSCAASGFTFNTYAMNWVRKAPGKGLEWVGRIRSKYNNYATYYADSVKDRFTISRDDSKNSLYLQMNSLKTEDTAVYYCVRHGNFGNSYVSWFAYWGQGTLVTVSSASTKGPSVFPLAPCSRSTSESTAALGCLVKDYFPEPVTVSWNSGALTSGVHTFPAVLQSSGLYSLSSVVTVPSSSLGTKTYTCNVDHKPSNTKVDKRVESKYGPPCPPCPAPEFEGGPSVFLFPPKPKDTLMISRTPEVTCVVVDVSQEDPEVQFNWYVDGVEVHNAKTKPREEQFNSTYRVVSVLTVLHQDWLNGKEYKCKVSNKGLASSIEKTISKAKGQPREPQVYTLPPCQEEMTKNQVSLWCLVKGFYPSDIAVEWESNGQPENNYKTTPPVLDSDGSFFLYSKLTVDKSRWQEGNVFSCSVMHEALHNHYTQKSLSLSLGK
notes: also called GPC3×CD3 κλ bispecific antibody
Consider B1, for which the EC50 in assay [1] was determined as 36 nM; in assay [2], 65 nM; in assay [3], 2.8 nM; in assay [4], 3 nM; in assay [5], 65 nM; in assay [6] it was 2.1 nM.

B2: GPC3 × CD3 κλ003 (bispecific antibody, human IgG4 S228P, kappa, lambda)
light 1: DVVMTQSPLSLPVTPGEPASISCRSSQSIVHSNGNTYLEWYLKKPGQSPQLLIYKVSNRFSGVPDRFSGSGSGTDFTLKISRVEAEDVGVYFCLQVTHVPLTFGQGTKLEIKRTVAAPSVFIFPPSDKKLKSGTASVVCLLNNFYPREAKVQWKVDNALQSGNSQESVTEQDSKDSTYSLSSTLTLSKADYEKHKVYACEVTHQGLSSPVTKSFNRGEC
heavy 1: QVQLVQSGAEVKKPGSSVKVSCKASGYTFADYEIHWVREAPGQGLEWMGAIHPGSGGTAYAQKFQGRVTLTADESSTTAYMELSSLRSEDTAVYYCTRYYSFAYWGQGTLVTVSSASTKGPSVFPLAPCSRSTSESTAALGCLVEDYFPEPVTVSWNSGALTSGVHTFPAVLQSSGLYSLSSVVTVPSSSLGTKTYTCNVDHKPSNTKVDERVESKYGPPCPPCPAPEFEGGPSVFLFPPKPKDTLMISRTPEVTCVVVDVSQEDPEVQFNWYVDGVEVHNAKTKPREEQFNSTYRVVSVLTVLHQDWLNGKEYKCKVSNKGLASSIEKTISKAKGQPREPQVCTLPPSQEEMTKNQVSLSCAVKGFYPSDIAVEWESNGQPENNYKTTPPVLDSDGSFFLVSKLTVDKSRWQEGNVFSCSVMHEALHNHYTQKSLSLSLGK
light 2: QAVVTQEPSLTVSPGGTVTLTCRSSTGAVTTSNYANWVQEKPGQAPRGLIGGTNKRAPWTPARFSGSLLGGKAALTITGAQAEDEAEYYCVLWYSNLWVFGGGTKLTVLGQPKAAPSVTLFPPSSEELQANKATLVCLISDFYPGAVTVAWKADSSPVKAGVETTTPSKQSNNKYAASSYLSLTPEQWKSHRSYSCQVTHEGSTVEKTVAPTECS
heavy 2: EVQLVESGGGLVQPGGSLRLSCAASGFTFNTYAMNWVRKAPGKGLEWVGRIRSKYNNYATYYADSVKDRFTISRDDSKNSLYLQMNSLKTEDTAVYYCVRHGNFGNSYVSWFAYWGQGTLVTVSSASTKGPSVFPLAPCSRSTSESTAALGCLVKDYFPEPVTVSWNSGALTSGVHTFPAVLQSSGLYSLSSVVTVPSSSLGTKTYTCNVDHKPSNTKVDKRVESKYGPPCPPCPAPEFEGGPSVFLFPPKPKDTLMISRTPEVTCVVVDVSQEDPEVQFNWYVDGVEVHNAKTKPREEQFNSTYRVVSVLTVLHQDWLNGKEYKCKVSNKGLASSIEKTISKAKGQPREPQVYTLPPCQEEMTKNQVSLWCLVKGFYPSDIAVEWESNGQPENNYKTTPPVLDSDGSFFLYSKLTVDKSRWQEGNVFSCSVMHEALHNHYTQKSLSLSLGK
notes: Human IgG4 knob-into-hole Fc with Ser228Pro, Leu235Glu, Pro329Ala; also called GPC3×CD3 κλ bispecific antibody
With B2, the EC50 in assay [1] was 26 nM; in assay [2] it was 69 nM; in assay [3], 2.9 nM; in assay [4] it was 3 nM; in assay [5], 56 nM; in assay [6] it was 2.5 nM.
